Assay results: article PMC6488853 (2019)

Target: T1, Spermine synthase (Homo sapiens, UniProt P52788)
T1 chain: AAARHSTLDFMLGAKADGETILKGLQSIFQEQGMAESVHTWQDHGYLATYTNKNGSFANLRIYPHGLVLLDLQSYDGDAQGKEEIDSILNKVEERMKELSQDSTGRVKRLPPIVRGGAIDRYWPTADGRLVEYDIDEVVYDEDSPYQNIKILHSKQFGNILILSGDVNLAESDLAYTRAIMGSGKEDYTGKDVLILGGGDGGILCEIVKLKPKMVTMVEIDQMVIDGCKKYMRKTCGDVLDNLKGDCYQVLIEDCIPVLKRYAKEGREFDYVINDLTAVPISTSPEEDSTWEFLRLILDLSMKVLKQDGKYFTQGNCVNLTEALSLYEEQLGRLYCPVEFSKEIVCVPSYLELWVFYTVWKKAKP
Test: MST

B1: Myosin Va GTD (protein)
chain: MENISPGQIIDEPIRPVNIPRKEKDFQGMLEYKKEDEQKLVKNLILELKPRGVAVNLIPGLPAYILFMCVRHADYLNDDQKVRSLLTSTINSIKKVLKKRGDDFETVSFWLSNTCRFLHCLKQYSGEEGFMKHNTSRQNEHCLTNFDLAEYRQVLSDLAIQIYQQLVRVLENILQPMIVSGMLEHETIQGVSGVKPTGLRKRTSSIADEGTYTLDSILRQLNSFHSVMCQHGMDPELIKQVVKQMFYIIGAITLNNLLLRKDMCSWSKGMQIRYNVSQLEEWLRDKNLMNSGAKETLEPLIQAAQLLQVKKKTDDDAEAICSMCNALTTAQIVKVLNLYTPVNEFEERVSVSFIRTIQMRLRDRKDSPQLLMDAKHIFPVTFPFNPSSLALETIQIPASLGLGFISRV
Kd: 3.5 µM
